Target: T1, human CD80/B7-1 protein (His tag) (human, UniProt P33681 35-242)
T1 construct: Recombinant His-tagged protein used as the antigen solution; also called antigen
T1 sequence (looked up): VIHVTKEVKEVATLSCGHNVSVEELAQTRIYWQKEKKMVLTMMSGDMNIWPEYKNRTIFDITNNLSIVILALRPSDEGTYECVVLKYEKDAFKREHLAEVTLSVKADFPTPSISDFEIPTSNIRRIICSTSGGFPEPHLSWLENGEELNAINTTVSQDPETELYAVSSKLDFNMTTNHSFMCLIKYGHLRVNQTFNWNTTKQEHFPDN
Assay: sandwich chemiluminescence ELISA; capture rabbit anti-CD80 IgG on plate, antigen 0.005-20 ng/mL, binder as detection antibody at 200 ng/mL
Method: Rabbit anti-CD80 antibody (IgG) was diluted with PBS to 1 μg/mL. The resulting antibody solution was added to a 96-well black plate at 100 μL/well and allowed to stand overnight at 4° C. to immobilize the antibody in the wells. After removing the antibody solution from the plate, Buffer I′ (100 mM HEPES, 1% BSA, 0.05% ProClin (trademark), 1 mM MgCl₂, 0.1 mM ZnCl₂, pH 8.0) was added at 300 μL/well and allowed to stand overnight at 4° C. for blocking. After removing the solution from the plate, a human CD80/B7-1 protein (His tag) solution (0.005, 0.020, 0.078, 0.313, 1.25, 5.0 or 20 ng/mL) was added as an antigen solution at 100 μL/well. The plate was shaken at room temperature at 500 rpm for 1 hour to perform an antigen-antibody reaction. The plate was washed three times with a HISCL washing solution (Sysmex Corporation), and then each ALP fusion antibody (200 ng/mL) of Example 1 diluted with Buffer I′ was added at 100 μL/well. The plate was shaken at room temperature at 500 rpm for 1 hour to perform an antigen-antibody reaction. After washing the plate with a HISCL washing solution three times, a HISCL R5 reagent (Sysmex Corporation) as a solution of a chemiluminescent substrate of ALP was added at 100 μL/well, and luminescence intensity was immediately measured with FLUOstar OPTIMA (BMG LABTECH).

Row | Binder | binding result
1 | ALP fusion antibody of Example 1 (GS1 linker): Fab of rabbit anti-CD80 antibody, Fd-GS1-BIAPII (Fab, Fab-enzyme fusion; two ALP fusion Fab molecules form a complex by dimer formation of the ALP subunits; also called Fab-GS1-BIAPII; ALP fusion antibody (GS1 linker)) heavy: QSVEESGGRLVTPGTPLTLTCTASGFSLSNNAVSWVRQAPGEGLEWIGTISSNDNTYYATWAKGRFTISKTSTTVDLKITSPTTEDTATYFCAIYYYGYGYVFNLWGPGTLVTVSSGQPKAPSVFPLAPCCGDTPSSTVTLGCLVKGYLPEPVTVTWNSGTLTNGVRTFPSVRQSSGLYSLSSVVSVTSSSQPVTCNVAHPATNTKVDKTVAPSTCSKPTGGGGSLIPAEEENPAFWNRQAAQALDVAKKLQPIQTAAKNVILFLGDGMGVPTVTATRILKGQMNGKLGPETPLAMDQFPYVALSKTYNVDRQVPDSAGTATAYLCGVKGNYRTIGVSAAARYNQCNTTRGNEVTSVINRAKKAGKAVGVVTTTRVQHASPAGAYAHTVNRNWYSDADLPADAQKNGCQDIAAQLVYNMDIDVILGGGRMYMFPEGTPDPEYPDDASVNGVRKDKQNLVQEWQAKHQGAQYVWNRTALLQAADDSSVTHLMGLFEPADMKYNVQQDHTKDPTLAEMTEAALQVLSRNPRGFYLFVEGGRIDHGHHDGKAYMALTEAIMFDNAIAKANELTSELDTLILVTADHSHVFSFGGYTLRGTSIFGLAPGKALDSKSYTSILYGNGPGYALGGGSRPDVNGSTSEEPSYRQQAAVPLASETHGGEDVAVFARGPQAHLVHGVQEETFVAHIMAFAGCVEPYTDCNLPAPA light: ELVMTQTPASVSEPVGGTVTINCQASEDIYSSLAWYQQKPGQRPKLLMYYASTLASGVPSRFKGSGSGTEFTLTISDLECADAATYYCQSYYLSSSSRYGNAFGGGTEVVVKGDPVAPTVLIFPPAADQVATGTVTIVCVANKYFPDVTVTWEVDGTTQTTGIENSKTPQNSADCTYNLSSTLTLTSTQYNSHKEYTCKVTQGTTSVVQSFIG | binds
2 | ALP fusion antibody of Example 1 (GS2 linker): Fab of rabbit anti-CD80 antibody, Fd-GS2-BIAPII (Fab, Fab-enzyme fusion, dimer through the ALP subunits) heavy: QSVEESGGRLVTPGTPLTLTCTASGFSLSNNAVSWVRQAPGEGLEWIGTISSNDNTYYATWAKGRFTISKTSTTVDLKITSPTTEDTATYFCAIYYYGYGYVFNLWGPGTLVTVSSGQPKAPSVFPLAPCCGDTPSSTVTLGCLVKGYLPEPVTVTWNSGTLTNGVRTFPSVRQSSGLYSLSSVVSVTSSSQPVTCNVAHPATNTKVDKTVAPSTCSKPTGGGGSGGGGSLIPAEEENPAFWNRQAAQALDVAKKLQPIQTAAKNVILFLGDGMGVPTVTATRILKGQMNGKLGPETPLAMDQFPYVALSKTYNVDRQVPDSAGTATAYLCGVKGNYRTIGVSAAARYNQCNTTRGNEVTSVINRAKKAGKAVGVVTTTRVQHASPAGAYAHTVNRNWYSDADLPADAQKNGCQDIAAQLVYNMDIDVILGGGRMYMFPEGTPDPEYPDDASVNGVRKDKQNLVQEWQAKHQGAQYVWNRTALLQAADDSSVTHLMGLFEPADMKYNVQQDHTKDPTLAEMTEAALQVLSRNPRGFYLFVEGGRIDHGHHDGKAYMALTEAIMFDNAIAKANELTSELDTLILVTADHSHVFSFGGYTLRGTSIFGLAPGKALDSKSYTSILYGNGPGYALGGGSRPDVNGSTSEEPSYRQQAAVPLASETHGGEDVAVFARGPQAHLVHGVQEETFVAHIMAFAGCVEPYTDCNLPAPA light: ELVMTQTPASVSEPVGGTVTINCQASEDIYSSLAWYQQKPGQRPKLLMYYASTLASGVPSRFKGSGSGTEFTLTISDLECADAATYYCQSYYLSSSSRYGNAFGGGTEVVVKGDPVAPTVLIFPPAADQVATGTVTIVCVANKYFPDVTVTWEVDGTTQTTGIENSKTPQNSADCTYNLSSTLTLTSTQYNSHKEYTCKVTQGTTSVVQSFIG | binds
3 | ALP fusion antibody of Example 1 (EK2 linker): Fab of rabbit anti-CD80 antibody, Fd-EK2-BIAPII (Fab, Fab-enzyme fusion, dimer through the ALP subunits) heavy: QSVEESGGRLVTPGTPLTLTCTASGFSLSNNAVSWVRQAPGEGLEWIGTISSNDNTYYATWAKGRFTISKTSTTVDLKITSPTTEDTATYFCAIYYYGYGYVFNLWGPGTLVTVSSGQPKAPSVFPLAPCCGDTPSSTVTLGCLVKGYLPEPVTVTWNSGTLTNGVRTFPSVRQSSGLYSLSSVVSVTSSSQPVTCNVAHPATNTKVDKTVAPSTCSKPTEAAAKEAAAKLIPAEEENPAFWNRQAAQALDVAKKLQPIQTAAKNVILFLGDGMGVPTVTATRILKGQMNGKLGPETPLAMDQFPYVALSKTYNVDRQVPDSAGTATAYLCGVKGNYRTIGVSAAARYNQCNTTRGNEVTSVINRAKKAGKAVGVVTTTRVQHASPAGAYAHTVNRNWYSDADLPADAQKNGCQDIAAQLVYNMDIDVILGGGRMYMFPEGTPDPEYPDDASVNGVRKDKQNLVQEWQAKHQGAQYVWNRTALLQAADDSSVTHLMGLFEPADMKYNVQQDHTKDPTLAEMTEAALQVLSRNPRGFYLFVEGGRIDHGHHDGKAYMALTEAIMFDNAIAKANELTSELDTLILVTADHSHVFSFGGYTLRGTSIFGLAPGKALDSKSYTSILYGNGPGYALGGGSRPDVNGSTSEEPSYRQQAAVPLASETHGGEDVAVFARGPQAHLVHGVQEETFVAHIMAFAGCVEPYTDCNLPAPA light: ELVMTQTPASVSEPVGGTVTINCQASEDIYSSLAWYQQKPGQRPKLLMYYASTLASGVPSRFKGSGSGTEFTLTISDLECADAATYYCQSYYLSSSSRYGNAFGGGTEVVVKGDPVAPTVLIFPPAADQVATGTVTIVCVANKYFPDVTVTWEVDGTTQTTGIENSKTPQNSADCTYNLSSTLTLTSTQYNSHKEYTCKVTQGTTSVVQSFIG | binds
4 | ALP fusion antibody of Example 1 (EK1 linker): Fab of rabbit anti-CD80 antibody, Fd-EK1-BIAPII (Fab, Fab-enzyme fusion, dimer through the ALP subunits) heavy: QSVEESGGRLVTPGTPLTLTCTASGFSLSNNAVSWVRQAPGEGLEWIGTISSNDNTYYATWAKGRFTISKTSTTVDLKITSPTTEDTATYFCAIYYYGYGYVFNLWGPGTLVTVSSGQPKAPSVFPLAPCCGDTPSSTVTLGCLVKGYLPEPVTVTWNSGTLTNGVRTFPSVRQSSGLYSLSSVVSVTSSSQPVTCNVAHPATNTKVDKTVAPSTCSKPTEAAAKLIPAEEENPAFWNRQAAQALDVAKKLQPIQTAAKNVILFLGDGMGVPTVTATRILKGQMNGKLGPETPLAMDQFPYVALSKTYNVDRQVPDSAGTATAYLCGVKGNYRTIGVSAAARYNQCNTTRGNEVTSVINRAKKAGKAVGVVTTTRVQHASPAGAYAHTVNRNWYSDADLPADAQKNGCQDIAAQLVYNMDIDVILGGGRMYMFPEGTPDPEYPDDASVNGVRKDKQNLVQEWQAKHQGAQYVWNRTALLQAADDSSVTHLMGLFEPADMKYNVQQDHTKDPTLAEMTEAALQVLSRNPRGFYLFVEGGRIDHGHHDGKAYMALTEAIMFDNAIAKANELTSELDTLILVTADHSHVFSFGGYTLRGTSIFGLAPGKALDSKSYTSILYGNGPGYALGGGSRPDVNGSTSEEPSYRQQAAVPLASETHGGEDVAVFARGPQAHLVHGVQEETFVAHIMAFAGCVEPYTDCNLPAPA light: ELVMTQTPASVSEPVGGTVTINCQASEDIYSSLAWYQQKPGQRPKLLMYYASTLASGVPSRFKGSGSGTEFTLTISDLECADAATYYCQSYYLSSSSRYGNAFGGGTEVVVKGDPVAPTVLIFPPAADQVATGTVTIVCVANKYFPDVTVTWEVDGTTQTTGIENSKTPQNSADCTYNLSSTLTLTSTQYNSHKEYTCKVTQGTTSVVQSFIG | binds

Reference: patent US20210371867A1 (SYSMEX, published 2021)
